Legend:
HLA-B*15:03 = test: IEDB peptide-MHC binding, purified MHC/competitive/radioactivity; filed as Kd, often an IC50 or EC50 that approximates it; ≥ and ≤ were set here for values at or beyond the usual limits of such assays
HLA-B*58:01 = test: as above
HLA-B*07:02 [1] = test: IEDB peptide-MHC binding, purified MHC/competitive/fluorescence; ≥ and ≤ were set here for values at or beyond the usual limits of such assays
HLA-B*15:01 [2] = test: as above
HLA-A*02:01 [3] = test: as above
HLA-B*53:01 = test: IEDB peptide-MHC binding, purified MHC/competitive/radioactivity; filed as Kd, often an IC50 or EC50 that approximates it; ≥ and ≤ were set here for values at or beyond the usual limits of such assays
HLA-B*54:01 = test: as above
HLA-B*07:02 [4] = test: as above
HLA-B*51:01 = test: as above
HLA-B*35:01 = test: as above
HLA-A*11:01 = test: IEDB peptide-MHC binding, purified MHC/competitive/fluorescence; ≥ and ≤ were set here for values at or beyond the usual limits of such assays
HLA-A*24:02 = test: as above
HLA-A*30:01 = test: IEDB peptide-MHC binding, purified MHC/competitive/radioactivity; filed as Kd, often an IC50 or EC50 that approximates it; ≥ and ≤ were set here for values at or beyond the usual limits of such assays
HLA-B*08:01 = test: as above; conditions: source organism: Vaccinia virus WR
HLA-B*15:01 [5] = test: as above; conditions: source organism: Vaccinia virus WR
HLA-A*32:01 = test: as above; conditions: source organism: Vaccinia virus WR
HLA-B*15:01 [6] = test: IEDB peptide-MHC binding, purified MHC/competitive/fluorescence; filed as Kd, often an IC50 or EC50 that approximates it; ≥ and ≤ were set here for values at or beyond the usual limits of such assays; conditions: source organism: Escherichia coli B171
HLA-A*03:01 = test: as above; conditions: source organism: Escherichia coli B171
HLA-A*68:02 [7] = test: as above
HLA-A*02:12 = test: IEDB peptide-MHC binding, purified MHC/direct/fluorescence; filed as Kd, often an IC50 or EC50 that approximates it; ≥ and ≤ were set here for values at or beyond the usual limits of such assays; conditions: source organism: Ravn virus - Ravn, Kenya, 1987
HLA-A*02:01 [8] = test: as above; conditions: source organism: Marburg virus - Musoke, Kenya, 1980
HLA-A*69:01 = test: as above; conditions: source organism: Marburg virus - Musoke, Kenya, 1980
HLA-A*02:06 = test: IEDB peptide-MHC binding, purified MHC/competitive/radioactivity; filed as Kd, often an IC50 or EC50 that approximates it; ≥ and ≤ were set here for values at or beyond the usual limits of such assays; conditions: source organism: Lassa virus Josiah
HLA-A*02:02 = test: as above; conditions: source organism: Lassa virus Josiah
HLA-A*02:03 = test: as above; conditions: source organism: Lassa virus Josiah
HLA-A*02:01 [9] = test: as above; conditions: source organism: Lassa virus Josiah
HLA-A*68:02 [10] = test: as above; conditions: source organism: Lassa virus Josiah
HLA-A*24:03 = test: IEDB peptide-MHC binding, purified MHC/competitive/fluorescence; filed as Kd, often an IC50 or EC50 that approximates it; ≥ and ≤ were set here for values at or beyond the usual limits of such assays
[11] = source organism: Vaccinia virus WR
[12] = source organism: Zaire ebolavirus
[13] = source organism: Vaccinia virus
[14] = source organism: SARS coronavirus Tor2
[15] = source organism: Sudan ebolavirus
[16] = source organism: Dengue virus 2 Jamaica/1409/1983
[17] = source organism: Lymphocytic choriomeningitis virus (strain WE)

## ISSLGILVF
HLA-B*15:03; [11]
  Kd: 0.0817 µM

## RAAVEDEEF
HLA-B*58:01; source organism: Dengue virus 3 Singapore/8120/1995
  Kd: 0.865 µM

## GPHRTIHHA
HLA-B*07:02 [1]; [12]
  IC50: 5.75 µM

## ILRSLETDL
HLA-B*15:01 [2]; [13]
  IC50: 58.9 µM
HLA-A*02:01 [3]; [13]
  IC50: 22 µM

## FPCSICLSGL
HLA-B*53:01; [14]
  Kd: 0.3 µM
HLA-B*54:01; [14]
  Kd: 0.0652 µM
HLA-B*07:02 [4]; [14]
  Kd: 0.0585 µM
HLA-B*51:01; [14]
  Kd: 0.035 µM
HLA-B*35:01; [14]
  Kd: 0.123 µM

## HTPQFLFQL
HLA-A*02:01 [3]; [15]
  IC50: 2.73 µM
HLA-B*07:02 [1]; [15]
  IC50: ≥ 78.8 µM
HLA-A*11:01; [15]
  IC50: ≥ 166 µM
HLA-A*24:02; [15]
  IC50: 1.11 µM

## FQQPQFQYL
HLA-B*15:03; source organism: Vaccinia virus Copenhagen
  Kd: 0.0226 µM

## FMTNFSMVY
HLA-B*15:03; [11]
  Kd: 0.00226 µM

## RPRVTKQYIV
HLA-B*53:01; [11]
  Kd: 4.45 µM
HLA-B*54:01; [11]
  Kd: 0.106 µM
HLA-B*07:02 [4]; [11]
  Kd: 0.00455 µM
HLA-B*51:01; [11]
  Kd: 14.9 µM
HLA-B*35:01; [11]
  Kd: 11.5 µM

## LPNPAFIHI
HLA-B*07:02 [1]; source organism: Variola virus
  IC50: 11 µM

## KARSTPFNM
HLA-A*30:01; [16]
  Kd: 0.169 µM
HLA-B*58:01; [16]
  Kd: 0.194 µM

## AAEAMEVA
HLA-B*07:02 [1]; source organism: H1N1 subtype Influenza A/Oklahoma/7485/01
  IC50: ≥ 1000 µM

## IQVHAEQGL
HLA-B*15:01 [2]; [12]
  IC50: 33 µM
HLA-A*02:01 [3]; [12]
  IC50: ≥ 105 µM

## TKVMFVIRF
HLA-B*15:03; [11]
  Kd: 0.0308 µM

## AVVVNPSVK
HLA-A*11:01; source organism: West Nile virus
  IC50: 2.25 µM

## KKMTCGQPL
HLA-B*15:03; [11]
  Kd: 0.00151 µM

## ISSTPLAENT
HLA-B*58:01; source organism: Dengue virus 4 Dominica/814669/1981
  Kd: 0.951 µM

## MPEWVNFKF
HLA-B*53:01; [17]
  Kd: 0.02 µM
HLA-B*54:01; [17]
  Kd: 1 µM
HLA-B*07:02 [4]; [17]
  Kd: 2.21 µM
HLA-B*51:01; [17]
  Kd: ≥ 20.4 µM
HLA-B*35:01; [17]
  Kd: 0.00871 µM

## IRGFPRCRY
HLA-B*15:01 [2]; [12]
  IC50: ≥ 242 µM
HLA-A*24:02; [12]
  IC50: 66 µM

## FFLQRLYFL
HLA-B*08:01
  Kd: 0.00679 µM
HLA-A*30:01; [11]
  Kd: 0.768 µM
HLA-B*15:01 [5]
  Kd: 1.21 µM
HLA-A*32:01
  Kd: ≥ 38.1 µM
HLA-B*15:03; [11]
  Kd: 0.805 µM

## VMAGVFARY
HLA-B*15:01 [6]
  Kd: 0.0617 µM
HLA-A*03:01
  Kd: 0.0214 µM

## EDNPGFFRV
HLA-A*68:02 [7]; source organism: Yersinia pestis CO92
  Kd: 0.296 µM

## ILHVDILSF
HLA-B*15:03; [11]
  Kd: 0.0238 µM

## ATSYLEYEI
HLA-A*02:01 [3]; [15]
  IC50: 4.96 µM
HLA-A*11:01; [15]
  IC50: ≥ 81.4 µM
HLA-A*24:02; [15]
  IC50: 5.08 µM

## MYIFLPVML
HLA-A*68:02 [7]; source organism: Entamoeba dispar SAW760
  Kd: 0.0941 µM

## GQSPARTSS
HLA-B*15:01 [2]; [12]
  IC50: 26 µM

## YLPEDSDIL
HLA-A*02:12
  Kd: 0.006 µM
HLA-A*02:01 [8]
  Kd: 0.525 µM
HLA-A*69:01
  Kd: ≥ 20 µM

## IMTSYQYLI
HLA-A*02:06
  Kd: 0.597 µM
HLA-A*02:02
  Kd: 0.21 µM
HLA-A*02:03
  Kd: 0.0781 µM
HLA-A*02:01 [9]
  Kd: 0.0333 µM
HLA-A*68:02 [10]
  Kd: 0.698 µM

## LDAVIRANN
HLA-A*11:01; [11]
  IC50: ≥ 169 µM

## VEVEPGSSF
HLA-B*15:03; [11]
  Kd: 0.00166 µM

## SSVSPPNVL
HLA-B*15:03; [11]
  Kd: 0.0183 µM

## FWPQHFGLI
HLA-A*24:03; source organism: Escherichia coli F11
  Kd: 0.0004 µM

## TESDMDYHK
HLA-A*11:01; [12]
  IC50: ≥ 174 µM

## KPVIVPDIKL
HLA-B*53:01; [11]
  Kd: 5.2 µM
HLA-B*54:01; [11]
  Kd: 3.81 µM
HLA-B*07:02 [4]; [11]
  Kd: 0.236 µM
HLA-B*51:01; [11]
  Kd: ≥ 69.6 µM
HLA-B*35:01; [11]
  Kd: 8.87 µM

## EPEKDIRELL
HLA-B*53:01; [11]
  Kd: 0.226 µM
HLA-B*54:01; [11]
  Kd: ≥ 24.2 µM
HLA-B*07:02 [4]; [11]
  Kd: 15.5 µM
HLA-B*51:01; [11]
  Kd: ≥ 51 µM
HLA-B*35:01; [11]
  Kd: ≥ 35.5 µM

## LPRDKFRKS
HLA-B*07:02 [1]; [15]
  IC50: 16.9 µM

## NYPVAKGSY
HLA-A*24:03; source organism: Influenza A virus (A/Kayano/57(H2N2))
  Kd: ≥ 20 µM
